pKd: −log10 of the molar value.
Key:
[1] = target: SARS-CoV-2 receptor binding domain (RBD), Wuhan-1 (SARS-CoV-2 Wuhan-Hu-1) (UniProt P0DTC2); test: SPR
[2] = target: SARS-CoV-2 S protein (recombinant, His-tagged) (SARS-CoV-2 Wuhan-Hu-1 (MN908947)) (UniProt P0DTC2)

Row | Substance | pKd [1] | fold higher binding affinity than for RBD [2]
1 | CC6.30 IgG (antibody) | 8.77 | –
2 | CC6.33 Fab | – | 10 fold
3 | CC6.33 IgG (antibody) | 6.59 | –
4 | CC12.1 IgG (antibody) | 8.22 | –
